The values below are quoted from earlier work in article PMC9369280.

Among the targets are FGF-1 (Homo sapiens) (UniProt P05230); FGF-2 (Homo sapiens) (UniProt P09038); FGFR2 (Homo sapiens) (UniProt P21802).
Common to all, as to test: SPR
In general terms: In SPR one partner is held on a chip, and binding of the other changes the refractive index at the surface.

Sequence of UniProt P21802 (P21802 22-377): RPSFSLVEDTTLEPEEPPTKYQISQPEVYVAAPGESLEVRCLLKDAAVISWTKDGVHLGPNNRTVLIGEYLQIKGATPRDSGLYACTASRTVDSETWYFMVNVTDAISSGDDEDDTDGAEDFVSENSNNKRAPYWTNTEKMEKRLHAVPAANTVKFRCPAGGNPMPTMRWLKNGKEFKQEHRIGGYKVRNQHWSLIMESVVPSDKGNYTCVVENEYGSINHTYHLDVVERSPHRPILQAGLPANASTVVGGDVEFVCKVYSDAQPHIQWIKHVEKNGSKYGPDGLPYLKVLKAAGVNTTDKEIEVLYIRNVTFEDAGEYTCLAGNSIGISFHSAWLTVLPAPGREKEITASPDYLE
Sequence of UniProt P09038 (P09038 143-288): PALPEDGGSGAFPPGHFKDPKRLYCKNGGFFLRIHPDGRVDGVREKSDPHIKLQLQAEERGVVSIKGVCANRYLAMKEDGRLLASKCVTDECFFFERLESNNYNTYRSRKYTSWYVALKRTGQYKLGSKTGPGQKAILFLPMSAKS
Sequence of UniProt P05230 (P05230 16-155): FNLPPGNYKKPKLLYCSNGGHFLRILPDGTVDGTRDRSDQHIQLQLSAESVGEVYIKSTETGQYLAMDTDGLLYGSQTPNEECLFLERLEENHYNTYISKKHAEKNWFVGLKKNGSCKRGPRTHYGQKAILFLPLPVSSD

The term Kd denotes the equilibrium constant for the complex coming apart. As to CCN2 (from UniProt P29279), the figures for the Kd with FGF-1 (Homo sapiens), with FGF-2 (Homo sapiens) and in the data set with FGFR2 (Homo sapiens) were 3.98 nM, 5.5 nM and 7.91 nM, respectively.
